# Measurements as given in IntAct's records for PubMed 35512704.
# B1: Mothers against decapentaplegic homolog 4 (Homo sapiens), Q13485 (parent)
# chain: MDNMSITNTPTSNDACLSIVHSLMCHRQGGESETFAKRAIESLVKKLKEKKDELDSLITAITTNGAHPSKCVTIQRTLDGRLQVAGRKGFPHVIYARLWRWPDLHKNELKHVKYCQYAFDLKCDSVCVNPYHYERVVSPGIDLSGLTLQSNAPSSMMVKDEYVHDFEGQPSLSTEGHSIQTIQHPPSNRASTETYSTPALLAPSESNATSTANFPNIPVASTSQPASILGGSHSEGLLQIASGPQPGQQQNGFTGQPATYHHNSTTTWTGSRTAPYTPNLPHHQNGHLQHHPPMPPHPGHYWPVHNELAFQPPISNHPAPEYWCSIAYFEMDVQVGETFKVPSSCPIVTVDGYVDPSGGDRFCLGQLSNVHRTEAIERARLHIGKGVQLECKGEGDVWVRCLSDHAVFVQSYYLDREAGRAPGDAVHKIYPSAYIKVFDLRQCHRQMQQQAATAQAAAAAQAAAVAGNIPGPGSVGGIAPAISLSAAAGIGVDDLRRLCILRMSFVKGWGPDYPRQSIKETPCWIEIHLHRALQLLDEVLHTMPIADPQPLD
# partner: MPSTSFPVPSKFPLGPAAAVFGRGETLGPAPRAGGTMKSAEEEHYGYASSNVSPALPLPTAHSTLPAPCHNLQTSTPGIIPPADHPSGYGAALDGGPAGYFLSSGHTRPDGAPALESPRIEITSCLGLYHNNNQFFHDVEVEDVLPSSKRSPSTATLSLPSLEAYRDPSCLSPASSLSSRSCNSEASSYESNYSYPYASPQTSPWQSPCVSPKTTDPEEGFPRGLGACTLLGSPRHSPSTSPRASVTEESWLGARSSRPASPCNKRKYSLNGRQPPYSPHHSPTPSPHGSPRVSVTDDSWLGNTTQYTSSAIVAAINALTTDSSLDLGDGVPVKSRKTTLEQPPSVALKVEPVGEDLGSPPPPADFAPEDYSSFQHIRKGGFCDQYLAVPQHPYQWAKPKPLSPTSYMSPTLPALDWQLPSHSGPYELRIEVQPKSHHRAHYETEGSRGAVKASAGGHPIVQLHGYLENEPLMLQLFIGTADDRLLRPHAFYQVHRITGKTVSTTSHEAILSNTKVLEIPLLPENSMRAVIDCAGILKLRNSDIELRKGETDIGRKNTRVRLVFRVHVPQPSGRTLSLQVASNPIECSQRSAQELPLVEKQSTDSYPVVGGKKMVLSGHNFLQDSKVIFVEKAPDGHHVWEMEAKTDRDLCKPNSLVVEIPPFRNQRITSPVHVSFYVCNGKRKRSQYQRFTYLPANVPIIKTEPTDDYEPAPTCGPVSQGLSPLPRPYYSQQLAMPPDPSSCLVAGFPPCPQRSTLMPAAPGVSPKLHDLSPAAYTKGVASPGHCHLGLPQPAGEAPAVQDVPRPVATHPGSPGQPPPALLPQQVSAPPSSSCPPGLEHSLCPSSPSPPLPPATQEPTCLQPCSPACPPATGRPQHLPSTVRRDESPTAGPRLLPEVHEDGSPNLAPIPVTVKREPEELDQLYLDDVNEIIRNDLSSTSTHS
# B2: Mothers against decapentaplegic homolog 4 (Homo sapiens), Q13485 (parent)
# chain: B1 chain
# partner: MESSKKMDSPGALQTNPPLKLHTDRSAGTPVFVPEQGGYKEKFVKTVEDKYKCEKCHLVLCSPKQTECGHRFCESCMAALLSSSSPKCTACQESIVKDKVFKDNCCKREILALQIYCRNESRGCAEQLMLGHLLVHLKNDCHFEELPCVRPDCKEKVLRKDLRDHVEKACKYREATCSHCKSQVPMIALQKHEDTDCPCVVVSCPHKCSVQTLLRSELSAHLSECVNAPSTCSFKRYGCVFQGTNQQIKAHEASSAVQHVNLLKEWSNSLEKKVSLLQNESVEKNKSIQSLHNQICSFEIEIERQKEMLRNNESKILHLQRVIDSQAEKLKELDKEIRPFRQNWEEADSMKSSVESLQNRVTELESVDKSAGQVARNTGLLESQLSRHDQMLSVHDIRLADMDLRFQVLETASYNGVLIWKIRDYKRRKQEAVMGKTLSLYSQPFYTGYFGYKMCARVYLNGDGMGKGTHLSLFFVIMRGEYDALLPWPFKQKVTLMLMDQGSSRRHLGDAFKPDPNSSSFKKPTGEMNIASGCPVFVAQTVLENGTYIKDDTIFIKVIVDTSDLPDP
# B3: Mothers against decapentaplegic homolog 4 (Homo sapiens), Q13485 (parent)
# chain: B1 chain
# partner: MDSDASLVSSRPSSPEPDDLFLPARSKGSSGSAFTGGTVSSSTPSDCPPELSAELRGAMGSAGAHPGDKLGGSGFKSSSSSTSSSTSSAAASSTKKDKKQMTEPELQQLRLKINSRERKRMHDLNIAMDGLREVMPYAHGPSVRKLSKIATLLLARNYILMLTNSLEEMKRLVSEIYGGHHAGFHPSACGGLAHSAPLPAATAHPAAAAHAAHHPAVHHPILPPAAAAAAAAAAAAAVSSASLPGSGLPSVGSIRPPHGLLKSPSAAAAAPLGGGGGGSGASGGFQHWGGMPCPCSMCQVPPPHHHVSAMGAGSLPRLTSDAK
# B4: Mothers against decapentaplegic homolog 4 (Homo sapiens), Q13485 (parent)
# chain: B1 chain
# partner: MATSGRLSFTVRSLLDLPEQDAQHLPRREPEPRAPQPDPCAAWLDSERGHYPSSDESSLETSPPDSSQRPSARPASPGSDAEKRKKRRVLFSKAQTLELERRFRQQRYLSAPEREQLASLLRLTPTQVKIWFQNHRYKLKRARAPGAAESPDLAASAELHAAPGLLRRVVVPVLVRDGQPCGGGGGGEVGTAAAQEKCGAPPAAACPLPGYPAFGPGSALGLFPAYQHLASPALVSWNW
# B5: Mothers against decapentaplegic homolog 4 (Homo sapiens), Q13485 (parent)
# chain: B1 chain
# partner: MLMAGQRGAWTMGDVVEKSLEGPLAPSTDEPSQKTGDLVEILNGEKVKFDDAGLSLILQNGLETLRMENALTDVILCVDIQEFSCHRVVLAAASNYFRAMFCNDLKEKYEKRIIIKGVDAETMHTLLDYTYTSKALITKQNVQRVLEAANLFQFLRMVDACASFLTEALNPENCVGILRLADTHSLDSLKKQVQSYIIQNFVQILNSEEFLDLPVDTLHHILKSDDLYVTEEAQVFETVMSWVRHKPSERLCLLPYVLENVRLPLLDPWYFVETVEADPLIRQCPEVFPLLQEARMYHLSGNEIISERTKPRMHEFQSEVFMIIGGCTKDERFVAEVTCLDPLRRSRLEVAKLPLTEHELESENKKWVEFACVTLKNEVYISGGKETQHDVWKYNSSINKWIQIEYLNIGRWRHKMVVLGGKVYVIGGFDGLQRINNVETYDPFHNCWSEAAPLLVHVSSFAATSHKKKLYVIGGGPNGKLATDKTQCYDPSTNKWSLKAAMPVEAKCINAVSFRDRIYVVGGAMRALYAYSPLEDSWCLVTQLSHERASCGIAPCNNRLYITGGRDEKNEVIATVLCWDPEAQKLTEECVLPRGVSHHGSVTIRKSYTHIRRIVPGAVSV
# B6: Mothers against decapentaplegic homolog 4 (Homo sapiens), Q13485 (parent)
# chain: B1 chain
# partner: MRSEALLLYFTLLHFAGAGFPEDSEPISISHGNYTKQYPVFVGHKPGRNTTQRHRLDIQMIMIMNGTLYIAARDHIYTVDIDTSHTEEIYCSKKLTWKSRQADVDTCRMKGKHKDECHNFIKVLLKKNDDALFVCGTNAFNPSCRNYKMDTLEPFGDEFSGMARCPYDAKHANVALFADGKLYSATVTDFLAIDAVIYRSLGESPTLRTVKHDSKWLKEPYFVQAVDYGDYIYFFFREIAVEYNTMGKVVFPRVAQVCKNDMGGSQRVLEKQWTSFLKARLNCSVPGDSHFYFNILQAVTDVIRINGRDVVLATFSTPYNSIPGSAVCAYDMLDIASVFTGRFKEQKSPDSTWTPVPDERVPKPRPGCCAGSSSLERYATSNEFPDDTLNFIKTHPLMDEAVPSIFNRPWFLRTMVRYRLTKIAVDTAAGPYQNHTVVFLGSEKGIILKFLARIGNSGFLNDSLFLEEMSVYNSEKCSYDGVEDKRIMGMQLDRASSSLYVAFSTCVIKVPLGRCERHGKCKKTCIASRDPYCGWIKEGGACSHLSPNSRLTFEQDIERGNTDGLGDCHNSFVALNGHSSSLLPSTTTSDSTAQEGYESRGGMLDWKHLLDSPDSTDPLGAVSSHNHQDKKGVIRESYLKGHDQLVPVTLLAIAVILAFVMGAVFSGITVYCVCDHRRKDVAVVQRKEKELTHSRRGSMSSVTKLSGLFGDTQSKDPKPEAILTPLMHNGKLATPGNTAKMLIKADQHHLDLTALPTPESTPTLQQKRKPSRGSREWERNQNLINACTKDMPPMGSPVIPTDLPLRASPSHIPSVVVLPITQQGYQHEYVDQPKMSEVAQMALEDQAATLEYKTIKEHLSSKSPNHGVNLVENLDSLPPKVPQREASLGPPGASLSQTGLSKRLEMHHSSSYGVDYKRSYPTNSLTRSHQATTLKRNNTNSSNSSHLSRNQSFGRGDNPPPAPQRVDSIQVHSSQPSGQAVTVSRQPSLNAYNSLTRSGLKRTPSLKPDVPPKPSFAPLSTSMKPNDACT
# B7: Mothers against decapentaplegic homolog 4 (Homo sapiens), Q13485 (parent)
# chain: B1 chain
# partner: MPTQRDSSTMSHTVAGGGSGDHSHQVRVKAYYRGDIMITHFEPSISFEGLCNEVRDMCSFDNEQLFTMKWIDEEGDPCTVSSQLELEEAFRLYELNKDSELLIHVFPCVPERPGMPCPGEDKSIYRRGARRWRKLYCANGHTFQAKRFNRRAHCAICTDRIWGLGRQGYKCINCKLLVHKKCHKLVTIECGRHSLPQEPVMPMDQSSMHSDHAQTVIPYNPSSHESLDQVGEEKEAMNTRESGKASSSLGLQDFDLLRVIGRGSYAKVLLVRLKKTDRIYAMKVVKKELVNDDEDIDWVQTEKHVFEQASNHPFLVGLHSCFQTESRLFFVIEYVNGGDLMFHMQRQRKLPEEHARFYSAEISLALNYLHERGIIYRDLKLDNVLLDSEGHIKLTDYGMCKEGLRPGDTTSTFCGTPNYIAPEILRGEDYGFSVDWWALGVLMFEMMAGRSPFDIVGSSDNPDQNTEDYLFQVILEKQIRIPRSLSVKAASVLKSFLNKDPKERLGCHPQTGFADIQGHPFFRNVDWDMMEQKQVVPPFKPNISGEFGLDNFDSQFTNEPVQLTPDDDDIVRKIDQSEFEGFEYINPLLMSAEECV
# B8: Mothers against decapentaplegic homolog 4 (Homo sapiens), Q13485 (parent)
# chain: B1 chain
# partner: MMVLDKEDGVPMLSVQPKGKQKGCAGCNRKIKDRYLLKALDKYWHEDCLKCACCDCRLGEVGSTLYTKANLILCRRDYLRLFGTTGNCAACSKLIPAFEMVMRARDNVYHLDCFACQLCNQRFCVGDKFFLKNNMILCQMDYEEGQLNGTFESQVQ
# Variants of: B1
# Conditions: with nfac1_human NFATC1, O95644
row,effect of a mutation on the interaction,Variant
1,with no effect,R361C

# Variants of: B1
# Conditions: with nfac1_human NFATC1, O95644
# Remark: another data set of the same source
row,effect of a mutation on the interaction,Variant
1,with no effect,R361H

# Variants of: B2
# Conditions: with traf3_human TRAF3, Q13114
row,effect of a mutation on the interaction,Variant
1,with no effect,R361C

# Variants of: B2
# Conditions: with traf3_human TRAF3, Q13114
# Remark: another data set of the same source
row,effect of a mutation on the interaction,Variant
1,with no effect,R361H

# Variants of: B2
# Conditions: with traf3_human TRAF3, Q13114
# Remark: another data set of the same source
row,effect of a mutation on the interaction,Variant
1,with no effect,D351H

# Variants of: B2
# Conditions: with traf3_human TRAF3, Q13114
# Remark: another data set of the same source
row,effect of a mutation on the interaction,Variant
1,with no effect,G386D

# Variants of: B3
# Conditions: with olig2_human OLIG2, Q13516
row,effect of a mutation on the interaction,Variant
1,with no effect,D351H

# Variants of: B3
# Conditions: with olig2_human OLIG2, Q13516
# Remark: another data set of the same source
row,effect of a mutation on the interaction,Variant
1,with no effect,G386D

# Variants of: B3
# Conditions: with olig2_human OLIG2, Q13516
# Remark: another data set of the same source
row,effect of a mutation on the interaction,Variant
1,with no effect,R361H

# Variants of: B3
# Conditions: with olig2_human OLIG2, Q13516
# Remark: another data set of the same source
row,effect of a mutation on the interaction,Variant
1,with no effect,R361C

# Variants of: B4
# Conditions: with nkx28_human NKX2-8, O15522
row,effect of a mutation on the interaction,Variant
1,with no effect,D351H

# Variants of: B4
# Conditions: with nkx28_human NKX2-8, O15522
# Remark: another data set of the same source
row,effect of a mutation on the interaction,Variant
1,with no effect,R361C

# Variants of: B4
# Conditions: with nkx28_human NKX2-8, O15522
# Remark: another data set of the same source
row,effect of a mutation on the interaction,Variant
1,with no effect,R361H

# Variants of: B4
# Conditions: with nkx28_human NKX2-8, O15522
# Remark: another data set of the same source
row,effect of a mutation on the interaction,Variant
1,with no effect,G386D

# Variants of: B5
# Conditions: with klhl6_human KLHL6, Q8WZ60
row,effect of a mutation on the interaction,Variant
1,with no effect,R361C

# Variants of: B5
# Conditions: with klhl6_human KLHL6, Q8WZ60
# Remark: another data set of the same source
row,effect of a mutation on the interaction,Variant
1,with no effect,R361H

# Variants of: B6
# Conditions: with sem6a_human SEMA6A
row,effect of a mutation on the interaction,Variant
1,with no effect,G386D

# Variants of: B6
# Conditions: with sem6a_human SEMA6A
# Remark: another data set of the same source
row,effect of a mutation on the interaction,Variant
1,with no effect,D351H

# Variants of: B6
# Conditions: with sem6a_human SEMA6A
# Remark: another data set of the same source
row,effect of a mutation on the interaction,Variant
1,with no effect,R361C

# Variants of: B6
# Conditions: with sem6a_human SEMA6A
# Remark: another data set of the same source
row,effect of a mutation on the interaction,Variant
1,with no effect,R361H

# Variants of: B7
# Conditions: with kpci_human PRKCI
row,effect of a mutation on the interaction,Variant
1,with no effect,D351H

# Variants of: B7
# Conditions: with kpci_human PRKCI
# Remark: another data set of the same source
row,effect of a mutation on the interaction,Variant
1,with no effect,R361H

# Variants of: B8
# Conditions: with rbtn1_human LMO1, P25800
row,effect of a mutation on the interaction,Variant
1,with no effect,G386D
